B1: monoclonal antibody 3C5 (antibody, V domains shown)
VH: DVQLQESGPGLVKPSQSLSLTCTVAGSSITSHYAWNWIRQFPGNKLEWMGYIDYSGSTRYLPSLKSRISITRDTSKNQFFLQLNSVTTEDTATYYCARGSGYFYGMDYWGQGTSVTVSS
VL: DIQMNQSPSSLSPSLGDTITITCHASQNINVWLSWYQQKPGNIPKLLIYKASNLHTGVPSRFSGSGSGIGFTLTIRSLQPEDIATYFCQQGQSYPYTFGGGTKLEIKR
notes: Murine monoclonal antibody from a hybridoma (Balb/c mice immunized with Aβ(12-42) globulomer); also called mAb 3C5; ML45-3C5.5
B2: monoclonal antibody 10F4 (antibody, V domains shown)
VH: QVQLQQSGAELVRPGTSVRVSCKASGYAFTNYLIEWVKQRPGQGLEWIGVINPGSGDTNYNENFKGKATLTADKSSSTAYMHLSSLTSDDSAVYFCTRGVITTGFDYWGQGTTLTISS
VL: DIQMTQSPASLSASVGETVTITCRASGNIHNYLAWYQQKQGKSPQLLVYNAKTLADGVPSRFSGSGSGTQYSLKINSLQPEDFGSYYCQHFWSSPRTFGGGTKLEIKR
notes: Murine monoclonal antibody from a hybridoma (Balb/c mice immunized with Aβ(12-42) globulomer); also called mAb 10F4; ML43-10F4.3H8

Experiments:
Aβ(12-42) globulomer = biological target: T1, Aβ(12-42) globulomer (human); assay: dot blot, antibody 0.2 µg/mL
T1 peptide: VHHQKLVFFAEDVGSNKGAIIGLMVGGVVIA
Description: (§1) For detection, the corresponding antibody was used (0.2 μg/mL). Immunostaining was done using peroxidase conjugated anti-mouse-IgG and the staining reagent BM Blue POD Substrate (Roche).
(§2) 1) 1 μL each of the different Aβ-standards (in their 5 serial dilutions) were dotted onto the nitrocellulose membrane in a distance of approximately 1 cm from each other. [0267] 2) The Aβ-standards dots were allowed to dry on the nitrocellulose membrane on air for at least 10 min at room temperature (RT) (=dot blot). [0268] 3) Blocking: [0269] The dot blot was incubated with 30 mL 5% low fat milk in TBS for 1.5 h at RT. [0270] 4) Washing: [0271] The blocking solution was discarded and the dot blot incubated under shaking with 20 mL TTBS for 10 min at RT. [0272] 5) Antibody solution I: [0273] The washing buffer was discarded and the dot blot incubated with antibody solution I for 2 h at RT. [0274] 6) Washing: [0275] The antibody solution I was discarded and the dot blot incubated under shaking with 20 mL TTBS for 10 min at RT. The washing solution was discarded and the dot blot incubated under shaking with 20 mL TTBS for 10 min at RT. The washing solution was discarded and the dot blot incubated under shaking with 20 mL TBS for 10 min at RT. [0276] 7) Antibody solution II: [0277] The washing buffer was discarded and the dot blot incubated with antibody solution II overnight at RT. [0278] 8) Washing: [0279] The antibody solution II was discarded and the dot blot incubated under shaking with 20 mL TTBS for 10 min at RT. The washing solution was discarded and the dot blot incubated under shaking with 20 mL TTBS for 10 min at RT. The washing solution was discarded and the dot blot incubated under shaking with 20 mL TBS for 10 min at RT. [0280] 9) Development: [0281] The washing solution was discarded. The dot blot was developed with 10 mL BM Blue POD Substrate for 10 min. The development was stopped by intense washing of the dot blot with H₂O. Quantitative evaluation was done using a densitometric analysis (GS800 densitometer (BioRad) and software package Quantity one, Version 4.5.0 (BioRad)) of the dot-intensity. […] This threshold value was determined for every dot-blot independently.

Aβ(20-42) globulomer = biological target: T2, Aβ(20-42) globulomer (human); assay: dot blot, antibody 0.2 µg/mL
T2 peptide: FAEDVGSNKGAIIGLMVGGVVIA
Description: as §1, §2

Aβ(1-42) globulomer = biological target: T3, Aβ(1-42) globulomer (human); assay: dot blot, antibody 0.2 µg/mL
T3 construct: also called 38/48-kDa Aβ(1-42) globulomer; Aβ(1-42) globular oligomer
Description: as §1, §2

Aβ(1-40) monomer = biological target: T4, Aβ(1-40) monomer (human); assay: dot blot, antibody 0.2 µg/mL
T4 construct: Synthetic peptide (Bachem) freshly dissolved in 0.1% NH4OH or 0.1% NaOH; both preparations were dotted; also called Aβ(1-40) monomer, 0.1% NH4OH; Aβ(1-40) monomer, 0.1% NaOH
T4 sequence (peptide, as listed by the source): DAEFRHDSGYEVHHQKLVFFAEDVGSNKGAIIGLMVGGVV
Description: as §1, §2

Aβ(1-42) monomer = biological target: T5, Aβ(1-42) monomer (human); assay: dot blot, antibody 0.2 µg/mL
T5 construct: Synthetic peptide (Bachem H-1368) freshly dissolved in 0.1% NH4OH or 0.1% NaOH; both preparations were dotted; also called Aβ(1-42) monomer, 0.1% NH4OH; Aβ(1-42) monomer, 0.1% NaOH
Description: as §1, §2

[1] = biological target: T6, Aβ(1-42) peptide in the CSF of an Alzheimer's disease patient (human); assay: immunoprecipitation from CSF with antibody-coated Dynabeads, urea-PAGE and Western blot
T6 construct: Endogenous peptide immunoprecipitated from patient CSF; also called Aβ(1-42) peptide present in cerebrospinal fluid (CSF)
Description: Activation of Dynabeads with monoclonal mouse antibodies [0497] the stock-suspension of dynabeads (Dynabeads M-280 Sheep anti-Mouse IgG, Invitrogen; Prod. No. 112.02) was shaken carefully to prevent foaming [0498] 1 mL was aseptically removed and transferred to a 1.5 mL reaction vial [0499] the dynabeads were washed 3 times 5 min with 1 mL immunoprecipitation (IP)-wash buffer (IP-wash-buffer: PBS (20 mM NaH₂PO₄, 140 mM NaCl, pH 7.4), 0.1% (w/v) BSA) During the washing procedure the supernatant was carefully removed while the dynabeads were immobilized at the side of the reaction vial with a magnetic separator stand (MSS) [0500] the washed dynabeads were incubated with 40 μg Aβ-antibody in 1 mL PBS, 0.1% (w/v) BSA [0501] the activation was carried out by overnight incubation under shaking at 4° C. [0502] the activated dynabeads were washed 4 times 30 min (again using the MSS) with 1 mL IP-wash buffer (PBS (20 mM NaH₂PO₄, 140 mM NaCl, pH 7.4), 0.1% (w/v) BSA) [0503] the activated dynabeads were resuspended with 1 mL PBS, 0.1% (w/v) BSA, 0.02% (w/v) Na-Azide; vortexed and centrifuged briefly [0504] the antibody activated dynabeads were stored at 4° C. until further use
250 μL aliquot of the prepared CSF sample were added to 25 μL anti-Aβ-Dynabeads suspension [0507] Immunoprecipitation occurred under stirring at 6° C. for 16 hours. […]

[2] = biological target: T7, soluble amyloid precursor protein-alpha (sAPPα) (UniProt P05067-4 18-612, limits assumed); assay: dot blot on nitrocellulose, densitometry
T7 construct: Bought protein; also called sAPPα (Sigma)
T7 sequence (P05067 other isoform, or with tags, fused parts or gaps limits assumed): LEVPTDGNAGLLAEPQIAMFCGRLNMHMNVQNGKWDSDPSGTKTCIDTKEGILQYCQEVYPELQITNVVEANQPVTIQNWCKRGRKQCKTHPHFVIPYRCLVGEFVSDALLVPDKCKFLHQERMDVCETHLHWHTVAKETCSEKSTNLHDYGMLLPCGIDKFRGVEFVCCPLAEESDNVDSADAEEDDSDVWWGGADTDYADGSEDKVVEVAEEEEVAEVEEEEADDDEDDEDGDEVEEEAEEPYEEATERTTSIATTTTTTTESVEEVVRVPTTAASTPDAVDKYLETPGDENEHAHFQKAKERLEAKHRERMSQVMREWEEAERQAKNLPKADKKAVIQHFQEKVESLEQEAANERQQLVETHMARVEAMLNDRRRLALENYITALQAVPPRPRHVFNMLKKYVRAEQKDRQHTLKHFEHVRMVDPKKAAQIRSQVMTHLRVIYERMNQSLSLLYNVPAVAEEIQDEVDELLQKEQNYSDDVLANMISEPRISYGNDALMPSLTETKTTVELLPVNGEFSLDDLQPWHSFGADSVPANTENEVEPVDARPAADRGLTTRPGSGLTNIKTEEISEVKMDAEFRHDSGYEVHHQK
Description: as §1
1) 1 μL each of the different Aβ-standards (in their 5 serial dilutions) were dotted onto the nitrocellulose membrane in a distance of approximately 1 cm from each other. [0267] 2) The Aβ-standards dots were allowed to dry on the nitrocellulose membrane on air for at least 10 min at room temperature (RT) (=dot blot). [0268] 3) Blocking: [0269] The dot blot was incubated with 30 mL 5% low fat milk in TBS for 1.5 h at RT. [0270] 4) Washing: [0271] The blocking solution was discarded and the dot blot incubated under shaking with 20 mL TTBS for 10 min at RT. [0272] 5) Antibody solution I: [0273] The washing buffer was discarded and the dot blot incubated with antibody solution I for 2 h at RT. [0274] 6) Washing: [0275] The antibody solution I was discarded and the dot blot incubated under shaking with 20 mL TTBS for 10 min at RT. The washing solution was discarded and the dot blot incubated under shaking with 20 mL TTBS for 10 min at RT. […] Quantitative evaluation was done using a densitometric analysis (GS800 densitometer (BioRad) and software package Quantity one, Version 4.5.0 (BioRad)) of the dot-intensity. […] This threshold value was determined for every dot-blot independently.

Binder | binding result (Aβ(12-42) globulomer) | binding result (Aβ(20-42) globulomer) | binding result (Aβ(1-42) globulomer) | binding result (Aβ(1-40) monomer) | binding result (Aβ(1-42) monomer) | binding result [1] | binding result [2]
B1 | binds | binds | binds | binds | binds | binds | no binding (tested: antibody 0.2 µg/mL; first dot: 1 pmol)
B2 | binds | binds | binds | binds | binds | binds | no binding (tested: antibody 0.2 µg/mL; first dot: 1 pmol)

Reference: patent US20090035307A1 (AbbVie / Abbott, published 2009)
